Target: T1, GST-LOV2GIV (L) (Avena sativa | , FMN chromophore. GST omitted. The exact sequence and junction are in Supplementary file 1, so limits are by convention: AsLOV2 404-546 and the UniProt GBA motif. The paper's GIV numbering is the displ)
T1 chain: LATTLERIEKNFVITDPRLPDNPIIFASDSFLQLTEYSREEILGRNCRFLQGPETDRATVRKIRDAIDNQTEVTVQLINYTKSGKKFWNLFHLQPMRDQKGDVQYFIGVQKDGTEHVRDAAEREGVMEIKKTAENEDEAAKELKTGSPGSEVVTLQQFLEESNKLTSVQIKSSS
Experiment: pull-down; ~20 µg purified GST-fused construct on glutathione-agarose beads, 3 µg (~300 nM) purified His-tagged Gα; 4 hr at 4°C in 50 mM Tris-HCl pH 7.4, 100 mM NaCl, 0.4% NP-40, 10 mM MgCl2, 5 mM EDTA, 1 mM DTT, 30 µM GDP; immunoblot for His
Details: both partners purified

fold binding over the dark conformation, LOV2GIV (D): ~3 fold
B1: His-Gαi3 (rat) (natural protein, UniProt P08753 1-354, looked up)
chain: MGCTLSAEDKAAVERSKMIDRNLREDGEKAAKEVKLLLLGAGESGKSTIVKQMKIIHEDGYSEDECKQYKVVVYSNTIQSIIAIIRAMGRLKIDFGEAARADDARQLFVLAGSAEEGVMTSELAGVIKRLWRDGGVQACFSRSREYQLNDSASYYLNDLDRISQTNYIPTQQDVLRTRVKTTGIVETHFTFKELYFKMFDVGGQRSERKKWIHCFEGVTAIIFCVALSDYDLVLAEDEEMNRMHESMKLFDSICNNKWFTDTSIILFLNKKDLFEEKIKRSPLTICYPEYTGSNTYEEAAAYIQCQFEDLNRRKDTKEVYTHFTCATDTKNVQFVFDAVTDVIIKNNLKECGLY
notes: rat Gαi3, G-protein alpha subunit i3; kept with GDP in the buffers; also called pET28b-Gαi3; source: E. coli BL21(DE3), purified (HisPur cobalt resin, desalting)

— paper PMC7515630, “Optogenetic activation of heterotrimeric G-proteins by LOV2GIVe, a rationally engineered modular protein” (eLife, 2020)
